Assay [1] deals with GFP-CaV2.2 K-R-HA (rabbit) (UniProt Q05152).
The target in another assay is GFP-CaV2.2-HA (rabbit) (UniProt Q05152).

In assay [1], “CaVβ1b-GFP (from UniProt P54283 1-597) (natural protein)” showed a Gmax (whole cell conductance) from Boltzmann fits, whole cell patch clamp of tsA-201 cells with CaVα2δ-1, 1 mM Ba2+ of 4.5 nS/pF; an IBa current density at +5 mV, whole cell patch clamp of tsA-201 cells with CaVα2δ-1, 1 mM Ba2+ of 148 pA/pF; a V50 of activation from Boltzmann fits of current density-voltage relationships, whole cell patch clamp of tsA-201 cells with CaVα2δ-1, 1 mM Ba2+ of 1.3 mV. Moreover, in the assay with GFP-CaV2.2-HA (rabbit), the Gmax (whole cell conductance) from Boltzmann fits, whole cell patch clamp of tsA-201 cells with CaVα2δ-1, 1 mM Ba2+ is 7.7 nS/pF; the IBa current density at +5 mV, whole cell patch clamp of tsA-201 cells with CaVα2δ-1, 1 mM Ba2+ turned out to be 277 pA/pF; the V50 of activation from Boltzmann fits of current density-voltage relationships, whole cell patch clamp of tsA-201 cells with CaVα2δ-1, 1 mM Ba2+ was -4.7 mV.

Values taken from publication PMC5034038.
